Results: patent US10947270B2, “Targeted prodrug cytosine deaminase fusion carrier and application thereof” (National Yang-Ming University, priority 2015, dated 2021)

How the values were obtained:
[1] = Enzyme kinetic analysis of EcCD series fusion proteins, substrate 5-FC; assay type: biochemical
Source text: FIGS. 11A-11D show the activity and kinetics analysis of EcCD series fusion protein enzymes, and the EcCD series proteins are combined with 5-FC at different concentrations for reaction. Respectively calculate the 5-FU formation reaction rate shown in FIG. 11A, 5-FC consumption reaction rate shown in FIG. 10B, uracil formation reaction rate shown in FIG. 10C and cytosine consumption reaction rate shown in FIG. 10D, substitute Michaelis-Menten formula, and calculate the base mass (Kcat) and Km value catalyzed by each mol enzyme in unit time.

HUVEC and U87MG cells = test: Fluorescence microscopy of binding and distribution of yCD series fusion proteins; assay type: cell-based, human; settings: 500 nM protein, 4° C., 2 hours
Protocol: (FIG. 8A) or 37° C. […] (FIG. 8C) or 37° C. (FIG. 8D) for 2 hours, and then the fluorescent staining is performed for the cells, and the confocal fluorescence microscope is used to observe the distribution of protein in cells. (Green signal: β3 integrin; red signal: anti-His6-tag (also represents the signal of the fusion protein); blue signal: Hoechst 33342 cell nuclear stain) (Calibration scale: 20 μm).
HUVEC and U87MG cells are co-cultured with culture medium containing 500 nM RGD4C-yCD and RGD4C-yCD/UPRT protein at 4° C. and 37° C. for 2 hours, then the cells are stained with fluorescence, and the distribution in the cell is observed by conjugated fluorescence microscopy.

integrin αvβ3 receptor = integrin αvβ3 receptor (Homo sapiens, UniProt P05106+P06756); test: ELISA binding ability of DTPA modified and In-labeled yCD series protein to integrin αvβ3 receptor; settings: before and after modification, marking, purification
integrin αvβ3 receptor, sequence (P06756 31-889 limits assumed): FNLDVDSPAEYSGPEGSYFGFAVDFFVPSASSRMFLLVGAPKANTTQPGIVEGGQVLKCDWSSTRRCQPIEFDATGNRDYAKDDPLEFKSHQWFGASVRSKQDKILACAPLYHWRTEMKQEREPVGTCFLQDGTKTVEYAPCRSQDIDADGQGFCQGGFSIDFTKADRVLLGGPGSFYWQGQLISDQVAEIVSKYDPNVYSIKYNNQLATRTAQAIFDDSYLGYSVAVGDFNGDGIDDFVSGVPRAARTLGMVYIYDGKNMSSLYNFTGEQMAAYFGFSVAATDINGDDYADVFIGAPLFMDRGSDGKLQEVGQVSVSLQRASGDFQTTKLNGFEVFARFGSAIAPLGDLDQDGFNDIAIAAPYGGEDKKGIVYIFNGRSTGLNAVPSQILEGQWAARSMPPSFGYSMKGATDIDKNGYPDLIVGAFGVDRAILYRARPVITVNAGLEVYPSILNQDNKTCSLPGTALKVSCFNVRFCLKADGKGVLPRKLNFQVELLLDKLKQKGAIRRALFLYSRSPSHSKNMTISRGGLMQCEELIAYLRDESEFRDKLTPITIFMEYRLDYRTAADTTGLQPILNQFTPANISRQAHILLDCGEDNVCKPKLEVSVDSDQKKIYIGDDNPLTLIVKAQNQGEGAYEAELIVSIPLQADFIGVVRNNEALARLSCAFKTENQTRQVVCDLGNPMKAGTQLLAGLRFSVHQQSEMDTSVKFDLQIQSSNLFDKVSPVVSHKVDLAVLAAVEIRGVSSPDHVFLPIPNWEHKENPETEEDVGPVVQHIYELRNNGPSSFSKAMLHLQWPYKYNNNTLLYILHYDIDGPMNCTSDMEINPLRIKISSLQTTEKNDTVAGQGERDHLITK
integrin αvβ3 receptor, sequence (P06756 891-1048 partner limits assumed): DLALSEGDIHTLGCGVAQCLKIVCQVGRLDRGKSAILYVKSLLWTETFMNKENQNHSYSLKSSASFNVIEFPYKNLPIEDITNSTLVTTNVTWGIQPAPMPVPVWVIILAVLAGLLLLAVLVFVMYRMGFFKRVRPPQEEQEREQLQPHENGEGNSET
integrin αvβ3 receptor, sequence (P05106 27-788): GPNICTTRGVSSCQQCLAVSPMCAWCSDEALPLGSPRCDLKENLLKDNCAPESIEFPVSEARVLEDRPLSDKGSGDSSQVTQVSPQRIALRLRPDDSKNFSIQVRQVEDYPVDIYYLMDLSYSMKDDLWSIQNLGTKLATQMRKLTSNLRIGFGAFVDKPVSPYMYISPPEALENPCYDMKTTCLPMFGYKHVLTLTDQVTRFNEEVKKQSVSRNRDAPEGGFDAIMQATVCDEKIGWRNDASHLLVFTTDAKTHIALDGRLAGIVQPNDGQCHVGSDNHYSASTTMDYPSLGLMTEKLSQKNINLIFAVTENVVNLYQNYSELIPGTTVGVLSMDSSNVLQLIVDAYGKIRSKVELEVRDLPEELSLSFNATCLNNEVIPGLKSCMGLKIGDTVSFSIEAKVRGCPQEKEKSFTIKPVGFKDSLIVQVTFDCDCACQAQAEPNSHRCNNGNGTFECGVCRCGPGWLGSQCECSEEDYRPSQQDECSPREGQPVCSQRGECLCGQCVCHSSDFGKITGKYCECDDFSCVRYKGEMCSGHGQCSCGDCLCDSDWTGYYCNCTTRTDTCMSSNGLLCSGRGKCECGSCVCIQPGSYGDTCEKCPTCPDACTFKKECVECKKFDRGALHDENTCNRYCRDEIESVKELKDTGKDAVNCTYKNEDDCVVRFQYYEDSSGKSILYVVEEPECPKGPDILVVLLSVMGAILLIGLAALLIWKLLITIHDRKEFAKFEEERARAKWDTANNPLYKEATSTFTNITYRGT
Source text: The curve and receptor binding ability parameters (see FIG. 19 and Table 14) are fitted by the binding ability of DTPA-modified protein and integrin αvβ3 receptor through the One site-Specific binding formula in the Graph prism program.
Before the protein is labeled by radioisotope, its enzyme function must be determined, and based on the original enzyme function, it should be examined whether it will be affected during the radioactive marking process. The curve and enzyme kinetic parameters of protein are fitted by the Michaelis-Menten formula in the Graph prism program. […] Whether the yCD and RGD4C-yCD protein detected by the same method will be affected under the conditions of DTPA modification, marking and purification. […] After the completion of the radioactive metal mark, it is necessary to add EDTA of 10-fold protein Moire number and react at room temperature for 1 hour to compete for the radioactive metal isotope indium which is not chelated on DTPA. The EDTA in this step also has the chance to chelate the metal zinc ion of the enzyme catalytic center, the enzyme activity is impaired, so it is necessary to analyze the enzyme activity of In-DTPA-yCD and In-RGD4C-yCD protein after competition with EDTA. […]

[2] = tested on: HUVEC, U87MG and MCF-7 cells; test: Specific binding assay of yCD series recombinant protein and cell, statement for the three cells; assay type: cell-based, human
Protocol: FIG. 5A, FIG. 5B, and FIG. 5C are respectively represented HUVEC cells, U87MG cells, MCF-7 cells seeded in 96-well plates for 24 hours, and then RGD4C-yCD, yCD, RGD4C-yCD/UPRT and yCD/UPRT with different concentrations are added for cells binding assay. After reacted with anti-His-HRP antibody and TMB substrate, ELISA reader (OD450 nm) is used to detect the amount of recombinant protein bound to the cells, and the binding curve is drawn. The nonlinear curve of the prism software is used to make a diagram and calculate the dissociation constant (Kd).
The anti-His6-Tag-HRP antibody and TMB show the color reagent to detect the amount of recombinant protein bound to the cell, then the dissociation constant Kd value of the recombinant protein and the integrin αvβ3 receptor is calculated and a binding curve is drawn. […] The cell binding ability of RGD4C-yCD for HUVEC and U87MG are about 7.7 folds and 6.8 folds higher than MCF-7 respectively. The cell binding ability of RGD4C-yCD/UPRT for HUVEC and U87MG are about 6.9 folds and 5.8 folds higher than MCF-7 respectively. […] It is shown that RGD4C-yCD and RGD4C-yCD/UPRT are specially bound with integrin αvβ3 through RGD4C sequence.

[3] = Enzyme kinetic analysis of yCD series proteins after DTPA modification, marking and purification; assay type: biochemical
Source text: The enzyme activity of yCD is not affected by DTPA modification.
FIGS. 24A-24B show the kinetic curve of yCD series protein modified, labeled and purified by DTPA. The enzyme activity of the two proteins is not affected by the labeling conditions. After adding EDTA with a 10-fold molar excess of protein, and it is competitively purified, In-DTPA-yCD compared with the original enzyme activity.
The curve and enzyme kinetic parameters (see FIG. 18 and Table 13) are fitted by the […] protein enzyme kinetics through the Michaelis-Menten formula in the Graph prism program.
Before the protein is labeled by radioisotope, its enzyme function must be determined, and based on the original enzyme function, it should be examined whether it will be affected during the radioactive marking process. The curve and enzyme kinetic parameters of protein are fitted by the Michaelis-Menten formula in the Graph prism program. […] Whether the yCD and RGD4C-yCD protein detected by the same method will be affected under the conditions of DTPA modification, marking and purification. […] After the completion of the radioactive metal mark, it is necessary to add EDTA of 10-fold protein Moire number and react at room temperature for 1 hour to compete for the radioactive metal isotope indium which is not chelated on DTPA. The EDTA in this step also has the chance to chelate the metal zinc ion of the enzyme catalytic center, the enzyme activity is impaired, so it is necessary to analyze the enzyme activity of In-DTPA-yCD and In-RGD4C-yCD protein after competition with EDTA. After the EDTA competitive reaction is completed, the enzyme kinetics analysis can be carried out by reducing the EDTA molecule weight through membrane centrifugation method and by replacing the solution with pH 7.0. […] The curve and receptor binding ability parameters of the protein and integrin αvβ3 are fitted under the conditions of DTPA modification, marking and purification by the One site-Specific binding formula in the Graph prism program (see FIG. 25 and Table 18). […] Although the two proteins after marking are greatly affected by the enzyme activity, they still have good binding ability to the integrin αvβ3 receptor. In consideration of the indispensability of EDTA for radiochemical purity, it retains a considerable amount of enzyme activity. In addition, the effect of integrin αvβ3 receptor binding ability is minimal, in combination of cell uptake, biodistribution and angiography experiment, focusing on the evaluation of target results, and the subsequent biological experiment is still carried out by the marking and purification conditions.

B1: yCD: yeast cytosine deaminase (yCD) (SEQ ID NO: 1), recombinant protein without target molecule (protein)
chain: MVVTGGMASKWDQKGMDIAYEEAALGYKEGGVPIGGCLINNKDGSVLGRGHNMRFQKGSATLHGEISTLENCGRLEGKVYKDTTLYTTLSPCDMCTGAIIMYGIPRCVVGENVNFKSKGEKYLQTRGHEVVVVDDERCKKIMKQFIDERPQDWFEDIGELEHHHHHH
modifications: yCD
Molecule B1 has a Kcat ([1]; 5-FC consumption (Table 5)) of 48.5 ± 1.3 s⁻¹, a Km ([1]; 5-FC consumption (Table 5)) of 1000 ± 100 µM and a Kcat ([1]; 5-FU generation) of 47.2 ± 0.9 s⁻¹. For the same molecule, the Km ([1]; 5-FU generation) was 1000 ± 100 µM, the “binding and distribution in cells” value (HUVEC and U87MG cells) was “can not be effectively bound” and the “binding with integrin αvβ3 receptor” value (integrin αvβ3 receptor) was “can not be bound”. The “binding to the three cells” value [2] was “weak binding”, the Km [3] was 840 ± 71.9 µM and the Vmax [3] was 264.1 ± 8.256 µM/min.
